The results in this text go back to patent US20030113787A1 (Takeda / Millennium, published 2003).

Assay [1] deals with T1, Myc-tagged CARD-11 (full-length) (human, UniProt Q9BXL7 8-1154).
T1 construct: Used in the co-localization and Bcl-10 phosphorylation experiments; also called full-length CARD-11
T1 sequence: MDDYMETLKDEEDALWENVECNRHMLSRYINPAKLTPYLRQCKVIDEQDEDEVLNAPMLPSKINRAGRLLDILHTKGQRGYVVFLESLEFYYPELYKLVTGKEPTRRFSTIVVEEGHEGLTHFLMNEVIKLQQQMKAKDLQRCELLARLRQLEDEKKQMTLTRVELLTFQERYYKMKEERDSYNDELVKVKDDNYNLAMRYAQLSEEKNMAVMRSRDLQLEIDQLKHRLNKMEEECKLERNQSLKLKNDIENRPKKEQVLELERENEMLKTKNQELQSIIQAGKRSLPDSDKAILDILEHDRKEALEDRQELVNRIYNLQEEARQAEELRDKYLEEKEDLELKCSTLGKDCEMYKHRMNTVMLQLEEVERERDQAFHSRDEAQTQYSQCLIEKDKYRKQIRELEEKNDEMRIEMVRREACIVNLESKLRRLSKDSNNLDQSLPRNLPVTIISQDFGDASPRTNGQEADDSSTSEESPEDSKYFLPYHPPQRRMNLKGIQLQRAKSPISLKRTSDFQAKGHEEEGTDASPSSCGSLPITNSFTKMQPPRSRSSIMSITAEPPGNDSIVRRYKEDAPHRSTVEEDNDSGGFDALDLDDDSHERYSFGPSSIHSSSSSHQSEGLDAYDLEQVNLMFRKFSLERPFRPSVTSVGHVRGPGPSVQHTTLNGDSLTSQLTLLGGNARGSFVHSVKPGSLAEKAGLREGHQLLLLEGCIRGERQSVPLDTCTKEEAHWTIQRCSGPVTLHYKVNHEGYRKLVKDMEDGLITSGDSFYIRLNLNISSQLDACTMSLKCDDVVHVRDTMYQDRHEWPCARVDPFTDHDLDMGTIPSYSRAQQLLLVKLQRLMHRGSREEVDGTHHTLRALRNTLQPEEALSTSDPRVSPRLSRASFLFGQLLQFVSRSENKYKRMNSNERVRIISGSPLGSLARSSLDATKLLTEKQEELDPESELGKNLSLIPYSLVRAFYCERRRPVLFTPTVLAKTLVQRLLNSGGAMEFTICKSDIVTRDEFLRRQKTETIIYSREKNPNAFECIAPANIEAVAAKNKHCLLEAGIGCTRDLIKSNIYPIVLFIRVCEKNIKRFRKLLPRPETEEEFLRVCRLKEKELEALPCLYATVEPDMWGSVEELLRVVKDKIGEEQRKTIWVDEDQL
In words: co-localization by immunofluorescence in co-transfected cells.

In another assay the target is T2, CARD-11/DCARD (human, UniProt Q9BXL7 134-1154).
T2 construct: also called CARD-11 truncation mutant lacking the N-terminal CARD
T2 sequence: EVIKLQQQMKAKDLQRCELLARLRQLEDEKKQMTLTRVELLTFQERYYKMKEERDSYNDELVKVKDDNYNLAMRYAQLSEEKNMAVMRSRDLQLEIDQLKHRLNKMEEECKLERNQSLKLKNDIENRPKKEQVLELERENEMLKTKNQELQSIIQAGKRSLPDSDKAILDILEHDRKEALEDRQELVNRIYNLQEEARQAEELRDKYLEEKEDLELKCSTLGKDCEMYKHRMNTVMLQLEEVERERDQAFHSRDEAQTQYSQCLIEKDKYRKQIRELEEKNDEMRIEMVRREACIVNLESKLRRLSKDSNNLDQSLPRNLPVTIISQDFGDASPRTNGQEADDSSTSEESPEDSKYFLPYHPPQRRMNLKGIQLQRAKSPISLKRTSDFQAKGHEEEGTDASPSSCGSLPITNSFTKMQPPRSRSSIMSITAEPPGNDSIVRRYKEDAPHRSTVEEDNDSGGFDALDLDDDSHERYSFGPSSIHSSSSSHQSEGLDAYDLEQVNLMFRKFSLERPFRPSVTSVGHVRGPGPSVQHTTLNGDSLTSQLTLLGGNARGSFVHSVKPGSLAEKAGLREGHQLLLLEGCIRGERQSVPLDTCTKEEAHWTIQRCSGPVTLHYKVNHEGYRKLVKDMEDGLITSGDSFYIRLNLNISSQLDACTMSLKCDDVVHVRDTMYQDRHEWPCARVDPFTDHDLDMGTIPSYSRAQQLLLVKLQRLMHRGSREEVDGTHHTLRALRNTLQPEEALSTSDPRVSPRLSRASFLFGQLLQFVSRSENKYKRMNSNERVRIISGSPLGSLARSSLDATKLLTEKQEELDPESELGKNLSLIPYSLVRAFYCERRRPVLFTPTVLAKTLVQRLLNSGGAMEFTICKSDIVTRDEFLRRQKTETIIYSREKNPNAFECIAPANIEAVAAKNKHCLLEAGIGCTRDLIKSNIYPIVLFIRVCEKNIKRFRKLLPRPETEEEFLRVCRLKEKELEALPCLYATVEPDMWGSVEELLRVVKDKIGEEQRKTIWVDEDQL
The description is as above.

The next assay addresses T3, Myc-CARD-11/CC (human, UniProt Q9BXL7 129-449).
T3 construct: NOT the whole entry: only the coiled-coil region stood in the assay
T3 sequence: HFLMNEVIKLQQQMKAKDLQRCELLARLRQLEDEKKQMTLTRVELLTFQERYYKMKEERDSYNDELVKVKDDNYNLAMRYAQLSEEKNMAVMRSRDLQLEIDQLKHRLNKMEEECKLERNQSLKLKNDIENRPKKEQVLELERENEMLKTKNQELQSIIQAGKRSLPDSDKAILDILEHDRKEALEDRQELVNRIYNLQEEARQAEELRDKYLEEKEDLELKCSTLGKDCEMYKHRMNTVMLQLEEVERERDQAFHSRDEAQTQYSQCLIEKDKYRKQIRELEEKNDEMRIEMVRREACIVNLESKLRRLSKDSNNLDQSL
The assay is described as above.

The next assay has as its target T4, Myc-tagged CARD-9 (human, UniProt Q9H257 1-536).
T4 construct: Expressed in 293T or Rat-1 cells; Species not restated; also called pCI-Card-9-myc
T4 sequence: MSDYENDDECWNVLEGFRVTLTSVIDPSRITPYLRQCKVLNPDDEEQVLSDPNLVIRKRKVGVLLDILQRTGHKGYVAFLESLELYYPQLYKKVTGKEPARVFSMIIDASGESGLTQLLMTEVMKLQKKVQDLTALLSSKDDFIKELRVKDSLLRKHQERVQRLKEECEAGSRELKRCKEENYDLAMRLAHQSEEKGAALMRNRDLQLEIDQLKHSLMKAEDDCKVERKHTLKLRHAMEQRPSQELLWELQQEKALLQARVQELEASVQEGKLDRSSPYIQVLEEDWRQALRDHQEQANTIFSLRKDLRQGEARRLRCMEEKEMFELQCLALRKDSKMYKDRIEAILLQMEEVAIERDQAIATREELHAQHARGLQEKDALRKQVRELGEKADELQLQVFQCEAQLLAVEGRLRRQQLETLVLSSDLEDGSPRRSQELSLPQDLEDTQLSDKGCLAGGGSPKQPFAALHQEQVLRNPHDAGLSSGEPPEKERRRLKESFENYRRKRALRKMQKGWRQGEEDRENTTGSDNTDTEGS
In words: co-localization by immunofluorescence in co-transfected Rat-1 cells. From the text: To determine the cellular localization of CARD-9, and to confirm that CARD-9 associated intracellularly with Bcl-10 when the two proteins were co-expressed, Rat-1 cells were transfected with a Myc-tagged vector encoding full-length CARD-9, and with an HA-tagged vector encoding full-length Bcl-10. The expressed proteins were detected using a mixture of a monoclonal anti-Myc antibody and a polyclonal rabbit anti-HA antibody. Briefly, Rat-1 cells were transfected in glass chamber slides (BioCoat, Becton-Dickinson Labware) with pCI-Bcl-10-HA or pCI-Card-9-myc, alone or together, using FuGENE-6 (Roche Molecular Biochemicals) for 20 hours. Cells were fixed in 4% paraformaldehyde, permeabilized and blocked in buffer containing 0.4% Trition X-100, and sequentially incubated with primary and secondary antibodies. Antibodies were rabbit anti-HA polyclonal Y-11 (Santa Cruz Biotechnology), mouse anti-myc monoclonal 9E10 (Oncogene Research Products), Alexa-488 Goat anti-mouse IgG (Molecular Probes) and Texas-Red Goat anti-rabbit IgG (Jackson Immunoresearch Laboratories). No cross-reactivity was observed between any of the antibodies. Nuclei were stained with Hoechst 33258. […]

B1: HA-tagged Bcl-10 (other, UniProt O95999 1-233, looked up, not shown: small tags and cut ends)
chain: MEPTAPSLTEEDLTEVKKDALENLRVYLCEKIIAERHFDHLRAKKILSREDTEEISCRTSSRKRAGKLLDYLQENPKGLDTLVESIRREKTQNFLIQKITDEVLKLRNIKLEHLKGLKCSSCEPFPDGATNNLSRSNSDESNFSEKLRASTVMYHPEGESSTTPFFSTNSSLNLPVLEVGRTENTIFSSTTLPRPGDPGAPPLPPDLQLEEEGTCANSSEMFLPLRSRTVSRQ
notes: Expressed in Rat-1 or other transfected cells; also called pCI-Bcl-10-HA; HA-Bcl-10
Turning to B1, the binding result is “binds” in assay [1], “no binding” in the assay with CARD-11/DCARD, “no binding” with Myc-CARD-11/CC and “binds” with Myc-tagged CARD-9.
